Target: the molecule itself
Assay: SEC; analytical size exclusion chromatography of recombinant CDH26A, 'in cell lysates'; details in the Supplementary Information

B1: full-length recombinant CDH26A (cadherin-26, transcript variant A) (natural protein, human, UniProt Q8IXH8-4 28-832, looked up)
chain: DSVQQETDDLTKQTKEKIYQPLRRSKRRWVITTLELEEEDPGPFPKLIGELFNNMSYNMSLMYLISGPGVDEYPEIGLFSLEDHENGRIYVHRPVDREMTPSFTVYFDVVERSTGKIVDTSLIFNIRISDVNDHAPQFPEKEFNITVQENQSAGQPIFQMLAVDLDEENTPNSQVLYFLISQTPLLKESGFRVDRLSGEIRLSGCLDYETAPQFTLLIRARDCGEPSLSSTTTVHVDVQEGNNHRPAFTQENYKVQIPEGRASQGVLRLLVQDRDSPFTSAWRAKFNILHGNEEGHFDISTDPETNEGILNVIKPLDYETRPAQSLIIVVENEERLVFCERGKLQPPRKAAASATVSVQVTDANDPPAFHPQSFIVNKEEGARPGTLLGTFNAMDPDSQIRYELVHDPANWVSVDKNSGVVITVEPIDRESPHVNNSFYVIIIHAVDDGFPPQTATGTLMLFLSDINDNVPTLRPRSRYMEVCESAVHEPLHIEAEDPDLEPFSDPFTFELDNTWGNAEDTWKLGRNWGQSVELLTLRSLPRGNYLVPLFIGDKQGLSQKQTVHVRICPCASGLTCVELADAEVGLHVGALFPVCAAFVALAVALLFLLRCYFVLEPKRHGCSVSNDEGHQTLVMYNAESKGTSAQTWSDVEGQRPALLICTAAAGPTQGVKDLEEVPPSAASQSAQARCALGSWGYGKPFEPRSVKNIHSTPAYPDATMHRQLLAPVEGRMAETLNQKLHVANVLEDDPGYLPHVYSEEGECGGAPSLSSLASLEQELQPDLLDSLGSKATPFEEIYSESGVPS
notes: cadherin-26 (CDH26), human, product of transcript variant A (NM_177980; 18 exons; predicted protein molecular weight 92.4 kDa); full-length recombinant protein; also called rCDH26A; source: purified by the University of North Carolina Protein Expression and Purification Core Facility; for the analytical SEC 'in cell lysates'
  binding result: binds

— article PMC5809386, “Cadherin-26 (CDH26) regulates airway epithelial cell cytoskeletal structure and polarity” (Cell Discovery, 2018)
